Laboratory results as given in patent US9657092B2, “S100A4 antibodies and therapeutic uses thereof” (LYKERA BIOMED SA, priority 2010, dated 2017).

What was measured:
MiaPACA-2 tumors = test: MiaPACA-2 subcutaneous xenograft tumor development; assay type: in vivo, nude mice; settings: MiaPACA-2, end of experiment (day 30)
Experimental: MiaPACA-2 human pancreatic adenocarcinoma cell line and HCT116 human colorectal adenocarcinoma cell line in exponential growth were harvested with trypsin-EDTA (0.05%/0.02%) (Invitrogen), washed, and examined for viability by trypan blue dye exclusion. Viability was greater than 95%. For primary tumor growth, cells (either 5×10^6 or 1×10^6 cells for MiaPACA-2 or HCT116 respectively in 0.1 mL DMEM high glucose) were subcutaneously injected into the flanks of nude mice. Tumor volumes between 65-160 mm^3 for MiaPACA-2 and volumes between 155-370 mm^3 for HCT116 were used to divide the mice into two groups of either ten mice each (MiaPACA-2) or seven mice each (HCT116), such that the mean tumor size was equal between groups (approximately 100 mm^3 for MiaPACA-2 or 220 mm^3 for HCT116). Tumor growth was followed by measuring tumor diameters with calipers and the tumor volume was calculated using an approximated formula for a prolate ellipsoid: volume=(D×d^2)/2 where D is the longest axis of the tumor and d the shortest. Mice were treated either with vehicle (PBS) or with the antibody, i.p. three times per week at 25 mg/Kg/100 μL of sterile PBS, starting the treatment at defined tumor volume (100 mm^3 and 220 mm^3). […]

[1] = system: HUVECs migration induced by VEGF plus S100A4; test: HUVECs Transwell migration assay; assay type: cell-based, human
Experimental: Twenty-four-well cell culture plates with light-opaque PET membrane filter inserts with 8 μm-pores (Transwell HTS FluoroBlok™ Multiwell Insert Systems from Becton Dickinson) were used to test the migratory activity. The upper and lower surfaces of the Transwell membranes were coated for 2 hours at 37° C. with 15 μg/mL of Type I Collagen (Upstate). Endothelial cells (5×10^4 HUVEC's) suspended in 100 μl of EBM in the absence of serum or other supplements were seeded, after the collagen coating, onto the upper side of each Transwell chamber and incubated for 4 hours at 37° C. Then, S100A4 (1 μM), alone or in combination with VEGF (3 ng/mL) in EBM were added to the lower compartment of the 24-well plates to test their chemotactic capacity. […] Other monoclonal antibody anti-S100A4 called 5H4 (Leitat Biomed Division) was used to compare the activity. After 24 hours at 37° C., cells that had migrated to the lower side of the transwell were incubated with 5 μM Calcein-AM (Calbiochem) for 25-30 minutes at 37° C. Migrated cells were counted under a light microscope at a magnification of ×10. Comparisons between groups were made using the two-tailed nonparametric Mann Whitney U test. Differences for which P value was less than 0.05 were considered statistically significant.

[2] = VEGF 3 ng/mL plus S100A4 1 μM, 24 h

B1: 5C3: mouse monoclonal anti-S100A4 antibody, IgG1, from hybridoma ECACC 10022401; VL SEQ ID NO: 1, VH SEQ ID NO: 2 (antibody, V domains shown)
VH: EAQLQQSGAELVKPGASVKLSCTASGFNIQETYMHWVKQRPEQGLEWIGRIDPANGNTKDDPKFQGKASITVDTSSNTAYLQLSSLTSEDTAVYYCASSYAMDYWGQGTSVTVSS
VL: DVLMTQTPLSLPVSLGDQASISCRSSQSIVHSNGNTYLEWYLQKTGQSPELLIYKVSNRLSGVPDRFSGSGSGTDFTLKISRVEAEDLGVYYCFQGSHVPFTFGSGTKLEIK
modifications: VH region of the 5C3 monoclonal antibody; VL region of the 5C3 monoclonal antibody
- tumor weight compared with the control group (MiaPACA-2 tumors): statistically significant decrease
- concentration that abolished the synergistic effect of VEGF plus S100A4 on HUVECs migration [1, 2]: 250 nM
- neutralizing activity on HUVECs migration induced by S100A4 [1, 2]: in vitro neutralizing activity
- migration induced by VEGF alone ([1]; VEGF alone): did not affect
